Values joined by “and” are separate entries in the source; they are usually repeats but may differ in a detail not shown here. Equal entries are not always repeated.
Assays:
Test in all cases: purified protein, by the assay type
Details in all cases: other: 0.2 M TEA-HCl buffer, pH 7.6, 30° C.
[1] = substrate: CC(C)C[C@H](N)C(=O)O
[2] = substrate: CC(C)[C@H](N)C(=O)O
[3] = substrate: CC[C@H](C)[C@H](N)C(=O)O
[4] = substrate: NC(=O)CC[C@H](N)C(=O)O
[5] = substrate: NCCC[C@H](N)C(=O)O
[6] = substrate: CSCC[C@H](N)C(=O)O; format: biochemical
Experimental: (§1) To determine the kinetic constants, the reaction speed of oxidation was studied at different concentrations of amino acid and for different L-amino acids, under the following conditions (tests in microtiter plates):
(§2) 0.2 M TEA-HCl buffer, pH 7.6; 0.2 mg/mL o-dianisidine; 25 U/mL POX; L-amino acid oxidase in limiting amounts; varying concentrations of the different L-amino acids. Activity measurement was conducted by photometry at 450 nm and 30° C.
(§3) The kinetic constants Vmax.

[7] = substrate: C[C@H](N)C(=O)O; format: biochemical
Experimental: as §1, §2, §3

[8] = substrate: N=C(N)NCCC[C@H](N)C(=O)O; format: biochemical
Experimental: as §1, §2, §3

[9] = substrate: NC(=O)C[C@H](N)C(=O)O; format: biochemical
Experimental: as §1, §2, §3

[10] = substrate: NC(=O)NCCC[C@H](N)C(=O)O; format: biochemical
Experimental: as §1, §2, §3

[11] = substrate: NCCCC[C@H](N)C(=O)O; format: biochemical
Experimental: as §1, §2, §3

[12] = substrate: N[C@@H](CO)C(=O)O; format: biochemical
Experimental: as §1, §2, §3

[13] = substrate: N[C@@H](Cc1ccccc1)C(=O)O; format: biochemical
Experimental: as §1, §2, §3

B1: L-amino acid oxidase from Rhodococcus opacus (Rhodococcus opacus) (protein)
chain: AGDLIGKVKGSHSVVVLGGGPAGLCSAFELQKAGYKVTVLEARTRPGGRVWTARGGSEETDLSGETQKCTFSEGHFYNVGATRIPQSHITLDYCRELGVEIQGFGNQNANTFVNYQSDTSLSGQSVTYRAAKADTFGYMSELLKKATDQGALDQVLSREDKDALSEFLSDFGDLSDDGRYLGSSRRGYDSEPGAGLNFGTEKKPFAMQEVIRSGIGRNFSFDFGYDQAMMMFTPVGGMDRIYYAFQDRIGTDNIVFGAEVTSMKNVSEGVTVEYTAGGSKKSITADYAICTIPPHLVGRLQNNLPGDVLTALKAAKPSSSGKLGIEYSRRWWETEDRIYGGASNTDKDISQIMFPYDHYNSDRGVVVAYYSSGKRQEAFESLTHRQRLAKAIAEGSEIHGEKYTRDISSSFSGSWRRTKYSESAWANWAGSGGSHGGAATPEYEKLLEPVDKIYFAGDHLSNAIAWQHGALTSARDVVTHIHERVAQEA
notes: made in house; host or cells: Rhodococcus opacus DSM 43250, the natural producer; purified from crude cell extract, not recombinant
Km [1]: 28 µM | Vmax [1]: 6.45 µmol/min/mg | Km [2]: 3730 µM | Vmax [2]: 1.93 µmol/min/mg | Km [3]: 5110 µM | Vmax [3]: 2.84 µmol/min/mg | Vmax [4]: 5.06 µmol/min/mg and 2.32 µmol/min/mg | Km [5]: 34 µM | Vmax [5]: 7.48 µmol/min/mg | Km [6]: 39 µM | Km [7]: 274 µM | Vmax [7]: 4.27 µmol/min/mg | Km [8]: 70 µM | Vmax [8]: 8.12 µmol/min/mg | Km [9]: 28 µM | Vmax [9]: 5.37 µmol/min/mg | Km [10]: 26 µM | Vmax [10]: 5.47 µmol/min/mg | Km [11]: 15 µM | Vmax [11]: 3.56 µmol/min/mg | Km [12]: 1360 µM | Vmax [12]: 4.36 µmol/min/mg | Km [13]: 19 µM | Vmax [13]: 5.64 µmol/min/mg

From patent US6461841B2, “L-amino acid oxidase from Rhodococcus species” (Degussa AG, priority 2000, dated 2002)
